We go through one molecule from publication PMC11199634.

The target of the experiment is LgBiT-PP1α, P62136. As to the kind of experiment: split-luciferase kinetic trace, competition with untagged SDS22. The settings on record: chain shown with the change; 10 μM competitor added at t = 22 min; value read at the last time point (about 45 min); buffer control est. 160; parent: est. 83; read off a plot.
Chain of LgBiT-PP1α, P62136 (P62136 whole entry): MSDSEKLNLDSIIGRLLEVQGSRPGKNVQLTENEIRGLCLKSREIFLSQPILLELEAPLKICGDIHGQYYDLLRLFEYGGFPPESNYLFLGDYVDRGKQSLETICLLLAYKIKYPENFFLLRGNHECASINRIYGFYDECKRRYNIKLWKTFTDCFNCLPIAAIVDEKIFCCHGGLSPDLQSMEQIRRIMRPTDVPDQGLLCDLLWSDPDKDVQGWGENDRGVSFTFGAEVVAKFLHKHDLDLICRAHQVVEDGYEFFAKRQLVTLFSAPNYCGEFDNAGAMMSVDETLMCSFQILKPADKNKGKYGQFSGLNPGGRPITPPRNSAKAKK

B1: SDS22 (tag-free, purified), Q15435 E192A (protein)
chain: MAAERGAGQQQSQEMMEVDRRVESEESGDEEGKKHSSGIVADLSEQSLKDGEERGEEDPEEEHELPVDMETINLDRDAEDVDLNHYRIGKIEGFEVLKKVKTLCLRQNLIKCIENLEELQSLRELDLYDNQIKKIENLEALTELEILDISFNLLRNIEGVDKLTRLKKLFLVNNKISKIENLSNLHQLQMLALGSNRIRAIENIDTLTNLESLFLGKNKITKLQNLDALTNLTVLSMQSNRLTKIEGLQNLVNLRELYLSHNGIEVIEGLENNNKLTMLDIASNRIKKIENISHLTELQEFWMNDNLLESWSDLDELKGARSLETVYLERNPLQKDPQYRRKVMLALPSVRQIDATFVRF
As for B1, the response (% of value at 22min) turned out to be 150.
